Measurements: publication doi:10.1101/2021.12.07.471543
pKd: −log10 of the molar value.

Biological target: C4BPα1-2, a fragment of human C4b-binding protein (C4BP) (human)
Assay: ITC

Row | Substance | pKd
1 | Intact M2 protein (mature form), Streptococcus pyogenes strain AP2 (natural protein) | 5.40
2 | M2G (M2_(53)G), M2 aa 53-86 fused at its C-terminus to a GCN4 coiled-coil sequence | 5.40
